# Reference: publication PMC7949152, “A resistant mutant of Plasmodium falciparum purine nucleoside phosphorylase uses wild-type neighbors to maintain parasite survival” (The Journal of Biological Chemistry, 2021)
# Tested on: OC[C@H]1O[C@@H](n2cnc3c(O)ncnc32)[C@H](O)[C@@H]1O
# Assay: Michaelis-Menten kinetics, xanthine oxidase-coupled assay (Km)
# Type: biochemical, Plasmodium falciparum
# Conditions: phosphate catalytic site
substance,measurement,value
"Plasmodium falciparum purine nucleoside phosphorylase (PfPNP), native subunits (natPNPfus) (Plasmodium falciparum 3D7)",Km,5.4 µM
